# Measured values as given in the RNAGym collection of RNA variant scans (doi:10.1073/pnas.2313332121).
# This sample holds only a part of the variants without activity.
# B1: TPR 5TU (parent)
# chain: GGAUCUUCUCGAUCUAACAAAAAAGACAAAUCUGCCACAAAGCUUGAGAGCAUCUUCGGAUGCAGAGGCGGCAGCCUUCGGUGGCGCGAUAGCGCCAACGUUCUCAACUAUGACACGCAAAACGCGUGCUCCGUUGAAUGGAGUUUAUCAUG
# Variants of: B1
# Assay: polymerase ribozyme fitness, log enrichment relative to wild type (log ratio); higher = more active; in vitro selection for triplet polymerase activity
# Method in brief: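 Each subunit of a heterodimeric triplet polymerase ribozyme was represented by a PCR-built, transcribed mutant library that underwent triplicate single-round in vitro selection with frozen incubation at −7 °C. Extended constructs were recovered by gel excision, streptavidin-bead capture and RT-PCR, and Illumina sequencing of input and output libraries kept genotypes with ≥10 input reads and ≥1 read per output. Fitness is the logarithm of genotype enrichment relative to wild-type enrichment, from inverse-variance-weighted replicate averages, with a logarithm base of 2.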
row,Variant,polymerase ribozyme fitness (log ratio)
1,GGAUCUUCUCGAUCUAACAAAAACGACAAAUCUGCCACAAAGCUUGAGAGCAUCUUCGGAUGCAGAGGCGGCAGCCUUCGGUGGCGCGAUAGCGCCAACGUUCUCAACUAUGACACGCAAAACGCGUGCUCCGUUGAAUGCAGUUUAUCAUG,-3.54
2,GGAUCUUCUCGAUCUAACAAAAACGACAAAUCUGCCACAAAGCUUGAGAGCAUCUUCGGAUGCAGAGGCGGCAGCCUUCGGUGGCGUGAUAGCGCCAACGUUCUCAACUAUGACACGCAAAACGCGUGCUCCGUUGAAUGGAGUUUAUCAUG,-3.57
3,GGAUCUUCUCGAUCUAACAAAAACGACAAAUCUGCCACAAACCUUGAGAUCAUCUUCGGAUGCAGAGGCGGCAGCCUUCGGUGGCGCGAUUGCGCCAACGUUAUCAACUAUGACACGCAAAACGCGUGCUCCGAUGAAUGGAGUUUAUCAUG,≤ -4.2
4,GGAUCUUCUCGAUCUAACAAAAACGACAAAUCUGCCACAAAGCUUGAAAGCAUCUUCGGAUGCAGAGGCGGCAGCCUUCGGUGUCGCGAUAGCGCCAACGUUCUCUACUAUGACACGCAAAACGCGUGCUCCGUUGAAUGGUGUUUAUCAUG,≤ -4.2
5,GGAUCUUCUCGAUCUAACAAAAACGACAAAUCUCACACAAAGCUUGAGAGCAUCUUCGGAUGCAGAGGCGGCAGCCUUCGGUGGCGCGAUAGCGCCAACGUUCUCAACUAUGACACGCAAAGCGCGUGCUCCGAUGAAUGGACUUUAUCAUG,-4.11
6,GGAUCUUCUCGAUCUAACAAAAACGACAAAUCUGCCACAAAGCUUGAGAGCAUCUUCAGAUGCAGAGGCGGCAGCCUUCGGUGGCGCGAUAGCGCCAACGUUCUCAACUAUUACACGCAAAGCGCGUGCUCCGUUGAAUGGAGUUUAUCAUG,≤ -4.2
7,GGAUCUUCUCGAUCUAACAAAAACGACAAACCGGCCACAAAGCUUGAGAGCAUCUUCGGAUGCAGAGGCGGCAGCGUUCGGUGGUGCGAUAGCGCCAACGUUCUCAACUAUGACACGCAAAACGGGUGCUCCGUUGAAUGGAGUUUAUCAUG,≤ -4.2
8,GGAUCUUCUCGAUCUAACAAAAACGACAAAUCUGCCACAAAGCUUAAGAGCAUCUUGGGAUGCAGAGGCGGCAGGCUUCGGUGGCGCGGUAGCGCGAACGUUCUCAACUAUGACACGCAAAACGCGUGCUCCGUUGAAUGGAGUUUAUCAUG,≤ -4.2
9,GGAUCUUCUCGAUCUAACAAAAACGACAAAUCUGCCACAAAGCUUGAGAGCAUCUUCGGAUGCAGAGGCGGCAGCCUUUGGUGGCGCGAUAGCGCCAACGUUCUCAACUAUGACACGCAAAACGCGUGCUCCGUUGAAUGGAGUUUAUCAUG,≤ -4.2
10,GGAUCUUCUCGAUCUAACAAAAACGACAAACCUGCCACAAAGCUUGAGAGCAUCUUCGGAUGCAGAGUCGGCAGCCUCCGGUGGUGCGAUAGCGCCAACGUUCUCAACUAUGACACGCAAAACGCGUGCUCCGUUGAAUGGAGUUUAUCAUG,≤ -4.2
11,GGAUCUUCUCGAUCUAACAAAAACGACAAAUCUGCCACAAAGCAUGAGAUCAUCAUCGGAUGCAGAGGCGGCAGCCUUCGGUGGCGCGAUAGCGCCAACGUUCUCAACUAUGACACGCAAAACGCGUGCUCCGUUGAAUGGAGUUUAUCAUG,≤ -4.2
12,GGAUCUUCUCGAUCUAACAAAAACGACAAAUCUGCCACAAAGCUUGAGAGCAUCUUCCGAUGCAGAGGCGGGAGCCUUCGGUGGCGCGAUAGCGCCAACGUUCUCAACUAUGACACGCAAAACGCGUGCGCCGUUGAAUGGAGUUUAUCAUG,≤ -4.2
13,GGAUCUUCUCGAUCUAACAAAAACGACAAAUCUGCCACAAAGCUUGAGAGCAUCUUCGUAUGCAGAGGCGGCGGCCUUCGGUGGCGCGAUAGCGCCAACGUUCUCAACUAUGACACGCAAAACGCGUGCUCCGUUGAAUGGAGUUUAUCUUG,-3.13
14,GGAUCUUCUCGAUCUAACAAAAACGACAAAUCUGCCACAAAGCUUGAGAGCAUCAUCGGGUGCAGAGGCGGCAGCCUUCGGUGGCGCGAUAGCGCCUACGUUCUCAACUAUGACACGCAAAACGCGUGCUCCGUUGAAUGGAGUUUAUCAUG,≤ -4.2
15,GGAUCUUCUCGAUCUAACAAAAACGACAAAUCUGCCACAAAGCUUGAGAGCAUCUUCGGAUGCAGAGGCGGCAGCCUUCGGUGGCGCGAUAGCGCCAACGUUCUCAACUAUGACACGCAAAACGUGUGCUCCGUUGAAUGGAGUUUAUCAUG,≤ -4.2
16,GGAUCUUCUCGAUCUAACAAAAACGACAAAUCUGCCACAAAGCUUGAGAGCAUCUUCGGAUGCAGAGGCGGCAGCCUUCGGUGGCGAGAUAGCGCCAACGUUCUCGACUAUGACACGCAAAACGCGUGCUCCGUCGAAUGGAGUUUAUCAUG,≤ -4.2
17,GGAUCUUCUCGAUCUAACAAAAACGACAAAUCUGCCACAAAGCUUGAGAGCAUCUUCGGAUGCAGAGGCGGCAGCCUUCGGUGGCGCGAUAGCGCGAACGUUCUCAACUAUGACACGAAAAACGCGUGCUCCGUUGAAUGGAGUUUAUCAUG,-4.19
18,GGAUCUUCUCGAUCUAACAAAAACGACAAAUCUGCCACAAAGCUUGACAGCAUCUUCGGAUGCAGAGGCGGCAGCCUUCGGUGGCGCGAUAGCGCCAACGUUCUCAACUAUGACACGGAAAACGCGUGCUCCGUUGAAUGGAGUUUAUCAUG,≤ -4.2
19,GGAUCUUCUCGAUCUAACAAAAACGACAAAUCUGCCACAAAGCUUGAGAGCAUCUUCGGAUGCAGAGGCGACAGCCUUCGGUGGCGCGAUAGCGCCAACGUUCUCAACUAUGACACGCAAAACGCGUGCUCCGUCGAAUGGAGUUCAACAUG,≤ -4.2
